Test results published in PMC8178691.

Molecular target: human purified plasma‐derived fibronectin (human)
Test: ELISA

binding as percent of normal VWF: 68%
Substance: recombinant VWF p.D2509E (from UniProt P04275 23-2813) (natural protein)
